In US20250163183A1 (COAGULANT THERAPEUTICS, published 2025):

What was measured:
[1] = target: T1, human protein C (PC) zymogen (human, UniProt P04070 43-197; P04070 200-461); experiment: ELISA screen, PC-coated wells, OD450, n=2 [Continued]
T1 construct: Bought

[2] = target: T2, human APC-PPACK (active site-blocked APC) (human, UniProt P04070 43-461, active site bound by the tripeptide inhibitor Phe-Pro-Arg-chloromethylketone (PPACK)); experiment: ELISA
T2 construct: Bought (Haematologic Technologies)
T2 sequence (P04070 other isoform, or with tags, fused parts or gaps): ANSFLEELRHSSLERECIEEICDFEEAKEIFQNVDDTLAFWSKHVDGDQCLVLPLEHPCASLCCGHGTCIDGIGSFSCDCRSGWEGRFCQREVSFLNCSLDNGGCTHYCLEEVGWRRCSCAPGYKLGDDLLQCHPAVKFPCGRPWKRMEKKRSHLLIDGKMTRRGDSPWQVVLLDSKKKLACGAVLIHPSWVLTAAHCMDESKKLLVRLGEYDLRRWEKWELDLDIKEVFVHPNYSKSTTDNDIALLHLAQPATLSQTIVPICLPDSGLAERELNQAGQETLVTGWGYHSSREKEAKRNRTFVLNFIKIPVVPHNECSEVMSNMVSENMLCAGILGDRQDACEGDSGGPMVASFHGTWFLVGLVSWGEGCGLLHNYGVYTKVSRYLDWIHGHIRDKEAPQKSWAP

T1 sequence (P04070 43-197, chain 1 of 2): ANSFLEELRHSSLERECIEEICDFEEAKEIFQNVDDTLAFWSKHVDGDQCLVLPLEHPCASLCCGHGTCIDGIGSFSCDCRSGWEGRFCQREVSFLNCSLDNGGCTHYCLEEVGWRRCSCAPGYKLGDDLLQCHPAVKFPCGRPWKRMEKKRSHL
T1 sequence (P04070 200-461, chain 2 of 2): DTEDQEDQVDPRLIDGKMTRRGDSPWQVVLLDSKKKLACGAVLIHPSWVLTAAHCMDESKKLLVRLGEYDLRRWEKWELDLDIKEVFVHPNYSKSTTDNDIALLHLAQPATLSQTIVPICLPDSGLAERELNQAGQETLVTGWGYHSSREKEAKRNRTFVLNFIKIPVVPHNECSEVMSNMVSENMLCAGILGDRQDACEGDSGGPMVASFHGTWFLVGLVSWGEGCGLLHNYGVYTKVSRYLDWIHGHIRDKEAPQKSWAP

Binder | binding result [1] | binding result [2]
SR16983-R3P2D02 (VHH) VHH: QLQLVESGGGLVQPGGSLRLSCAASGFTLDGYAIGWFRQAPGKEREGVSSIATSDGSTYYADSVKGRFTISGDDAKNTVYLHMNSLKPEDTAVYYCARGGSLVLRPKYYDYWGQGTQVTVSS | no binding | binds
SR16983-R2-P4-E08 (VHH) VHH: QLQLVESGGGLVQAGGSLTLSCAASGFTLDDYAIGWFRQAPGKEREGVSCIATSDGSTYYADSVKGRFTISSDNAKNTVYLQMNSLKPEDTAVYYCARGGLLLPKPELFDFRGQGTQVTVSP | no binding | binds
SR16983-R2-P4-E11 (VHH) VHH: QLQLVESGGGLVQAGGSLRLSCAASGTTFSFVYMGWYRQAPGNQRDLVARISRDGSTNYLDSVKGRFTISGDNAKNTVYLQMNSLKPEDTARYYCFYNGHLNKWGRGTQVTVSS | no binding | binds
SR16983-R3P2D01 (VHH) VHH: QLQLVESGGGLVQAGGSLRLSCAASGTTSSFVYMGWYRQAPGNQRDLVARISSDGSTNYADSVKGRFTISGDNAKNTVYLQMNSLKPEDTARYYCFYNGHVNKWGQGTQVTVSS | no binding | binds
SR16983-R3-P4-E11 (VHH) VHH: QLQLVEFGGGLVQAGGSLRLSCAASGSTFSFNYMGWYRQAPGNQRDLVARISSGGITNYADSVKGRFTISGDNAKNTVYLQMNSLKPEDTARYYCFYNGYLNKWGQGTQVTVSS | no binding | binds
SR16983-R2-P3-E05 (VHH) VHH: EVQLVESGGGLVQAGGSLRLSCAASGLTASTYVMAWFRQAPGKERDFVSLIDWRGEPTYANSVKGRFTISRDNGKNTVFLQMNSLRPEDTALYYCAVRASPGYVASLYPYWGRGTQVTVSS | no binding | binds
SR16983-R3P2A08 (VHH) VHH: QLQLVESGGGLVQPGGSLRLSCAASGFTFSTKWMYWVRQGPGKGLERVAAIDASGGSTYYADSVKGRFTISRDNSENTVYLQMNSLESADTAVYYCARSEGGLFRGRGTQVTVSA | no binding | binds
SR16983-R2-P3-F10 (VHH) VHH: QVQLVESGGGLVQPGGSLRLSCKASGFTFSTKWMYWVRQGPGKGLERVAAIDASGGSTYYADSVKGRFTISRDNSDNTVYLQMNSLESADTAVYYCARSEGGQFRGQGTQVTVSS | no binding | binds
SR16983-R2-P3-F01 (VHH) VHH: EVQLVESGGGLVQPGGSLRLSCAASGFTFSTKWMYWVRQGPGKGLEWVSTIDASGGSTYYADSVKGRFTISRDNTEKKVYLQMNSLESADTAVYYCVRSAGGQFRGRGTQVTVSS | no binding | binds
SR16983-R3P2A5 (VHH) VHH: QLQLVESGGGLVQPGGSLRLSCAASGFTFSTKWMYWVRQGPGKGLERVAAIDASGGSTYYADSVKGRFTISRDNSENTLYLQMNSLESADTAVYYCARSEGGLFRGRGTQVTVSA | no binding | binds
SR16983-R2P1C12 (VHH) VHH: QVQLVESGGGLVQPGGSLRLSCAASGFTFSMKWMYWVRQGPGKGLEWVSTIDTSGSSTYYADSVKGRFTISRDNSKNTVYLQMNSLESADTAVYYCARSAGGLFRGRGTQVTVSS | no binding | binds
SR16983-R2-P4-F01 (VHH) VHH: QLQLVESGGGLVQAGGSLRLSCAASGRTFVGSYVMGWFRQAPGKAREFVAASSRSTGNTVYLDAVKGRFTVSRDDAKNTLYLQMSSLKPEDTAVYYCATRASINYNYANWPYWGQGTQVTVSS | no binding | binds
SR16983-R2-P3-B01 (VHH) VHH: QLQLVESGGGLVQAGGSLRLSCAASGRTFGTYVIGWFRQAPGKEREFVAAFSRSTGNTVYPDSVKGRFTISRDDAKNTVTLQMNSLKPEDTAVYYCAARASINYNYANWPYWGQGTQVTVSS | no binding | binds
SR16983-R3-P5-H06 (VHH) VHH: QLQLVESGGGLVQAGGSLRLSCAASGRTFGTYVIGWFRQAPGKEREFVAAFSRSTGNTVYPDSVKGRFTISRDDAKNTVYLQMNSLKPEDTAVYYCAARASINYNYANWPYWGQGTQVTVSS | no binding | binds
SR16983-R2-P3-E04 (VHH) VHH: QLQLVESGGGLVQAGGSLRLSCAASGRTVGSYVMGWFRQAPGKEREFLAASSRSTGNTVYADSVKGRFSISRDDAKNTLYLQMNSLKPEDTAVYYCATRASINYNYANWPYWGQGTQVTVSS | no binding | binds
SR16983-R2-P3-F12 (VHH) VHH: QVQLVESGGGLVQAGGSLRLSCAASGRTFGTYVMGWFRQAPGKEREFVAAFSRSTGSTTYADSVKGRFTISRDDAKNTLYLQMNSLKPEDTAVYYCATRASINYNYANWPYWGQGTQVTVSS | no binding | binds
SR16983-R3-P3-C10 (VHH) VHH: QLQLVESGGGLVQAGGSLRLSCAASGRTVGSYAMGWFRQAPGKEREFLAAFSRSTGPTVYADSVKGRFTISRDDAKNTLYLQMNSLKPEDTAVYYCAARASINYNYANWPYWGQGTQVTVSS | no binding | binds
SR16983-R3P2D06 (VHH) VHH: QLQLVESGGGLVQPGGSLRLSCAASGRTVGSYVMGWFRQAPGKERELLAASSRSTGNTVYADSVKGRFTISRDDAKNTLYLQMNSLKPEDTAVYYCAARASINYNYANWPYWGQGTQVTVSS | no binding | binds
SR16983-R3-P3-H10 (VHH) VHH: QVQLVESGGGLVQAGDSLRLSCAASTRTVGTYVMGWFRQAPGKERELVAASSRSTGNTVYPDSVKGRFTVSRDDAKNALYLQMNSLKPEDTAIYYCAARASINYNYANWPYWGQGTQVTVSS | no binding | binds
SR16983-R2-P4-F03 (VHH) VHH: QVQLVESGGGLVQAGGSLRLSCAASGRTFGSYVMGWFRQAPGKEREFLAAFSRSTGSTVYADSVKGRFTISKDDAKNTLYLQMNSLKPEDTAVYYCATRASINYNYANWPYWGQGTQVTVSS | no binding | binds
SR16983-R4-P1-C12 (VHH) VHH: QLQLVESGGGLVQAGGSLRLSCAASGSTFSINVFAWYRQGSGEQRELVAFIGRSGTARYGDSVKGRFSISRDNAKKTVYLQMDSLRPEDTAVYYCNLGDYWGQGTQVTVSS | no binding | binds
SR16983-R4-P1-C10 (VHH) VHH: QVQLVESGGGLVQAGGSLRLSCVAYGSTFSINVFAWYRQAPGEQRELGELVAFIGRSGTTKYGDSVKGRFTISRDNAKNTVYLQMDSLRPEDTAVYYCNLGDYWGQGTQVTVSS | no binding | binds
SR16983-R3-P3-E02 (VHH) VHH: QLQLVESGGGLVQAGGSLRLSCVLSGNTFGRNVITWYRQPPGKQREFIAMITSSGSTRYADSVKGRFTMSRDTAKNTAFLQMSSLKVEDTAVYYCWTAIAGQGEYWGQGTQVTVSS | no binding | binds
SR16983-R2-P4-G08 (VHH) VHH: EVQLVESGGGLVQAGGSLRLSCAASGLTSSTYAMAWFRQAPGKEREFVSVIDWRGSTTYTNSVKGRFTISRDNGKNTVYLQMNSLQPEDTALYYCAARASPGYVGSLYPYWGRGTQVTVSS | no binding | binds
SR16983-R2-P4-C02 (VHH) VHH: QVQLVESGGGLVQAGGSLRLSCTTSGSTFSITAGGWYRQAPGKQRELVADIANDGSTTSADSVKGRFTISRDNAKNTVELQMSSLKLEDTAVYYCFVVGKSDSMPRARAYWGQGTQVTVSS | no binding | binds
SR16983-R3P2H09 (VHH) VHH: EVQLVESGGGLVQAGGSLRVSCTTSGSTFSITAGGWYRQTPGKERELVADIANDGSTTYANSVKGRFTISRDNAKNTVELQMSSLKLEDTAAYRCFVVGISDSMPRPRAYWGQGTQVTVSS | no binding | binds
SR16983-R3-P5-D08 (VHH) VHH: EVQLVESGGGLVQAGGSLRLSCTGSGSTFSVTAGGWYRQAPGKQRELVADIANDGSTTYLDFVKGRFTISRDNAKNSVDLQMNSLKPEDTAVYYCFVVGISDSTPRPRAYWGQGTQVTVSS | no binding | binds
SR16983-R3-P3-G04 (VHH) VHH: QLQLVESGGGLVQAGGSLRLSCTASGSTVRVTAGGWYRQAPGNERELVADIDNGGRPTYADSVKGRFTISRDNAKNAVDLQMNNLKPEDTAVYYCFVIAIPDSAPRPRAYWGQGTQVTVSS | no binding | binds
SR16983-R3-P4-G09 (VHH) VHH: QLQLVESGGGLVQAGGSLRLSCAASGSTVRVTAGGWYRQTPGNERELVADIDNGGSTTYADSVKGRFTISRDNAKNAVDLQMNSLKPEDTAVYRCFVIAIPDSAPRPRSYWGQGTEVTVSS | no binding | binds
